Test results: patent US20160264649A1

How the values were obtained:
Assay in all cases: cell-based or functional assay
[1] = biological target: HIV-1 6535.3 (Acute) Env on pseudovirus (HIV-1)
[2] = biological target: HIV-1 92BR020 Env (HIV-1)
[3] = biological target: HIV-1 92UG001 Env (HIV-1)
[4] = biological target: HIV-1 92UG005 Env (HIV-1)
[5] = biological target: HIV-1 92UG046 Env (HIV-1)
[6] = biological target: HIV-1 94UG103 Env (HIV-1)
[7] = biological target: HIV-1 98IN022 Env on pseudovirus (HIV-1)
HIV-1 APV-13 Env (HIV-1) = biological target: HIV-1 APV-13 Env (HIV-1)
HIV-1 APV-17 Env (HIV-1) = biological target: HIV-1 APV-17 Env (HIV-1)
[8] = biological target: HIV-1 APV_17 Env on pseudovirus (HIV-1)
HIV-1 CMU02 Env (HIV-1) = biological target: HIV-1 CMU02 Env (HIV-1)
[9] = biological target: HIV-1 IAVI-C18 Env (HIV-1)
HIV-1 JRCSF Env (HIV-1) = HIV-1 JRCSF Env (HIV-1) (UniProt P20871)
[10] = biological target: HIV-1 MGRM-AE-005 Env (HIV-1)
[11] = biological target: HIV-1 MGRM-AE-006 Env (HIV-1)
[12] = biological target: HIV-1 MGRM-AE-008 Env (HIV-1)
[13] = biological target: HIV-1 MGRM-AG-002 Env (HIV-1)
[14] = biological target: HIV-1 MGRM-AG-003 Env (HIV-1)
[15] = biological target: HIV-1 MGRM-AG-011 Env (HIV-1)
[16] = biological target: HIV-1 MGRM-C-001 Env on pseudovirus (HIV-1)
[17] = biological target: HIV-1 MGRM-C-002 Env on pseudovirus (HIV-1)
[18] = biological target: HIV-1 MGRM-C-006 Env on pseudovirus (HIV-1)
[19] = biological target: HIV-1 MGRM-C-014 Env on pseudovirus (HIV-1)
[20] = biological target: HIV-1 MGRM-C-015 Env on pseudovirus (HIV-1)
[21] = biological target: HIV-1 MGRM-C-019 Env on pseudovirus (HIV-1)
[22] = biological target: HIV-1 MGRM-C-023 Env on pseudovirus (HIV-1)
[23] = biological target: HIV-1 MGRM-Chronic-B-001 Env on pseudovirus (HIV-1)
[24] = biological target: HIV-1 MGRM-Chronic-B-004 Env on pseudovirus (HIV-1)
[25] = biological target: HIV-1 MGRM-Chronic-B-008 Env on pseudovirus (HIV-1)
[26] = biological target: HIV-1 MGRM-Chronic-B-018 Env on pseudovirus (HIV-1)
[27] = biological target: HIV-1 MGRM-Chronic-B-020 Env on pseudovirus (HIV-1)
[28] = biological target: HIV-1 MGRM-Chronic-B-024 Env on pseudovirus (HIV-1)
[29] = biological target: HIV-1 MGRM-D-004 Env (HIV-1)
[30] = biological target: HIV-1 MGRM-D-005 Env (HIV-1)
[31] = biological target: HIV-1 MGRM-D-011 Env (HIV-1)
[32] = biological target: HIV-1 MGRM-D-021 Env (HIV-1)
[33] = biological target: HIV-1 MGRM-D-029 Env (HIV-1)
[34] = biological target: HIV-1 MGRM-F1-008 Env (HIV-1)
[35] = biological target: HIV-1 MGRM-F1-010 Env (HIV-1)
[36] = biological target: HIV-1 MGRM-F1-014 Env (HIV-1)
[37] = biological target: HIV-1 MGRM-F1-015 Env (HIV-1)
[38] = biological target: HIV-1 MGRM-F1-022 Env (HIV-1)
[39] = biological target: HIV-1 MGRM-G-004 Env (HIV-1)
[40] = biological target: HIV-1 MGRM-G-009 Env (HIV-1)
[41] = biological target: HIV-1 MGRM-G-011 Env (HIV-1)
[42] = biological target: HIV-1 MGRM-G-013 Env (HIV-1)
[43] = biological target: HIV-1 MGRM-G-014 Env (HIV-1)
[44] = biological target: HIV-1 MGRM-G-027 Env (HIV-1)
[45] = biological target: HIV-1 MGRM-G-028 Env (HIV-1)
[46] = biological target: HIV-1 QH0692.42 (Acute) Env on pseudovirus (HIV-1)
[47] = biological target: HIV-1 TRJ0.58 (Acute) Env on pseudovirus (HIV-1)

2F5 (antibody)
IC50 [1]: 2.76 µg/mL | neutralization IC50 [2]: > 50 µg/mL | neutralization IC90 [2]: > 50 µg/mL | IC50 (µg/ml), pseudovirus neutralization [3]: 13 µg/mL | IC50 (µg/ml), pseudovirus neutralization [4]: 8.61 µg/mL | neutralization IC50 [4]: 11.8 µg/mL | neutralization IC90 [4]: > 50 µg/mL | IC50 (µg/ml), pseudovirus neutralization [5]: > 50 µg/mL | neutralization IC50 [6]: 3.79 µg/mL | neutralization IC90 [6]: 46.6 µg/mL | IC50 [7]: > 50 µg/mL | neutralization IC50 (HIV-1 APV-13 Env (HIV-1)): 2.8 µg/mL | neutralization IC50 (HIV-1 APV-17 Env (HIV-1)): 2 µg/mL | IC50 [8]: 4.61 µg/mL | IC50 (µg/ml), pseudovirus neutralization (HIV-1 CMU02 Env (HIV-1)): 0.6 µg/mL | neutralization IC50 (HIV-1 CMU02 Env (HIV-1)): 0.38 µg/mL | neutralization IC90 (HIV-1 CMU02 Env (HIV-1)): 12.2 µg/mL | neutralization IC50 [9]: > 50 µg/mL | neutralization IC50 (HIV-1 JRCSF Env (HIV-1)): 3.36 µg/mL | neutralization IC90 (HIV-1 JRCSF Env (HIV-1)): 25.3 µg/mL | IC50 (µg/ml), pseudovirus neutralization [10]: 0.14 µg/mL | IC50 (µg/ml), pseudovirus neutralization [11]: 0.18 µg/mL | IC50 (µg/ml), pseudovirus neutralization [12]: > 50 µg/mL | IC50 (µg/ml), pseudovirus neutralization [13]: 0.54 µg/mL | IC50 (µg/ml), pseudovirus neutralization [14]: 0.14 µg/mL | IC50 (µg/ml), pseudovirus neutralization [15]: > 50 µg/mL | IC50 [16]: > 50 µg/mL | IC50 [17]: 44.7 µg/mL | IC50 [18]: > 50 µg/mL | IC50 [19]: > 50 µg/mL | IC50 [20]: > 50 µg/mL | IC50 [21]: > 50 µg/mL | IC50 [22]: > 50 µg/mL | IC50 [23]: 0.55 µg/mL | IC50 [24]: 2.41 µg/mL | IC50 [25]: > 50 µg/mL | IC50 [26]: 10.8 µg/mL | IC50 [27]: 0.78 µg/mL | IC50 [28]: > 50 µg/mL | IC50 (µg/ml), pseudovirus neutralization [29]: 2.3 µg/mL | IC50 (µg/ml), pseudovirus neutralization [30]: > 50 µg/mL | IC50 (µg/ml), pseudovirus neutralization [31]: > 50 µg/mL | IC50 (µg/ml), pseudovirus neutralization [32]: > 50 µg/mL | IC50 (µg/ml), pseudovirus neutralization [33]: > 50 µg/mL | IC50 (pseudovirus neutralization) [34]: 1.61 µg/mL | IC50 (pseudovirus neutralization) [35]: 14.6 µg/mL | IC50 (pseudovirus neutralization) [36]: 15.1 µg/mL | IC50 (pseudovirus neutralization) [37]: 0.1 µg/mL | IC50 (pseudovirus neutralization) [38]: 1.26 µg/mL | IC50 (µg/ml), pseudovirus neutralization [39]: > 50 µg/mL | IC50 (µg/ml), pseudovirus neutralization [40]: 7.21 µg/mL | IC50 (µg/ml), pseudovirus neutralization [41]: 1.16 µg/mL | IC50 (µg/ml), pseudovirus neutralization [42]: 0.59 µg/mL | IC50 (µg/ml), pseudovirus neutralization [43]: 9.65 µg/mL | IC50 (µg/ml), pseudovirus neutralization [44]: 0.28 µg/mL | IC50 (µg/ml), pseudovirus neutralization [45]: 2.24 µg/mL | IC50 [46]: 5.42 µg/mL | IC50 [47]: > 50 µg/mL

4E10 (antibody)
IC50 [1]: 1.23 µg/mL | neutralization IC50 [2]: 41.4 µg/mL | neutralization IC90 [2]: > 50 µg/mL | IC50 (µg/ml), pseudovirus neutralization [3]: 13.6 µg/mL | IC50 (µg/ml), pseudovirus neutralization [4]: 7.46 µg/mL | neutralization IC50 [4]: 8.86 µg/mL | neutralization IC90 [4]: > 50 µg/mL | IC50 (µg/ml), pseudovirus neutralization [5]: 12.2 µg/mL | neutralization IC50 [6]: 9.7 µg/mL | neutralization IC90 [6]: > 50 µg/mL | IC50 [7]: 0.53 µg/mL | neutralization IC50 (HIV-1 APV-13 Env (HIV-1)): 3.8 µg/mL | neutralization IC50 (HIV-1 APV-17 Env (HIV-1)): 5.1 µg/mL | IC50 [8]: 10.5 µg/mL | IC50 (µg/ml), pseudovirus neutralization (HIV-1 CMU02 Env (HIV-1)): 0.72 µg/mL | neutralization IC50 (HIV-1 CMU02 Env (HIV-1)): 0.59 µg/mL | neutralization IC90 (HIV-1 CMU02 Env (HIV-1)): 13.4 µg/mL | neutralization IC50 [9]: > 50 µg/mL | neutralization IC90 [9]: > 50 µg/mL | neutralization IC50 (HIV-1 JRCSF Env (HIV-1)): 6 µg/mL | neutralization IC90 (HIV-1 JRCSF Env (HIV-1)): 44.1 µg/mL | IC50 (µg/ml), pseudovirus neutralization [10]: 0.47 µg/mL | IC50 (µg/ml), pseudovirus neutralization [11]: 0.23 µg/mL | IC50 (µg/ml), pseudovirus neutralization [12]: 0.94 µg/mL | IC50 (µg/ml), pseudovirus neutralization [13]: 0.8 µg/mL | IC50 (µg/ml), pseudovirus neutralization [14]: 0.64 µg/mL | IC50 (µg/ml), pseudovirus neutralization [15]: 1.36 µg/mL | IC50 [16]: 5.66 µg/mL | IC50 [17]: 18.2 µg/mL | IC50 [18]: 4.94 µg/mL | IC50 [19]: 2.48 µg/mL | IC50 [20]: 2.52 µg/mL | IC50 [21]: 3.49 µg/mL | IC50 [22]: 1.95 µg/mL | IC50 [23]: 1.46 µg/mL | IC50 [24]: 3.7 µg/mL | IC50 [25]: 16.7 µg/mL | IC50 [26]: 23.2 µg/mL | IC50 [27]: 2.45 µg/mL | IC50 [28]: 9.19 µg/mL | IC50 (µg/ml), pseudovirus neutralization [29]: 1.58 µg/mL | IC50 (µg/ml), pseudovirus neutralization [30]: 35.2 µg/mL | IC50 (µg/ml), pseudovirus neutralization [31]: 0.91 µg/mL | IC50 (µg/ml), pseudovirus neutralization [32]: 13.3 µg/mL | IC50 (µg/ml), pseudovirus neutralization [33]: 5.3 µg/mL | IC50 (pseudovirus neutralization) [34]: 2.75 µg/mL | IC50 (pseudovirus neutralization) [35]: 3.69 µg/mL | IC50 (pseudovirus neutralization) [36]: 7.36 µg/mL | IC50 (pseudovirus neutralization) [37]: 0.53 µg/mL | IC50 (pseudovirus neutralization) [38]: 1.01 µg/mL | IC50 (µg/ml), pseudovirus neutralization [39]: 1.47 µg/mL | IC50 (µg/ml), pseudovirus neutralization [40]: 1.34 µg/mL | IC50 (µg/ml), pseudovirus neutralization [41]: 1.44 µg/mL | IC50 (µg/ml), pseudovirus neutralization [42]: 1.15 µg/mL | IC50 (µg/ml), pseudovirus neutralization [43]: 13.7 µg/mL | IC50 (µg/ml), pseudovirus neutralization [44]: 1.19 µg/mL | IC50 (µg/ml), pseudovirus neutralization [45]: 6.32 µg/mL | IC50 [46]: 12.7 µg/mL | IC50 [47]: 11.9 µg/mL
